From article PMC10588934

Biological target: dopamine receptor D1 fused to LgBiT (UniProt P21728)
Experiment: split reporter

UniProt P21728, sequence (P21728 whole entry, the tested form may be a part): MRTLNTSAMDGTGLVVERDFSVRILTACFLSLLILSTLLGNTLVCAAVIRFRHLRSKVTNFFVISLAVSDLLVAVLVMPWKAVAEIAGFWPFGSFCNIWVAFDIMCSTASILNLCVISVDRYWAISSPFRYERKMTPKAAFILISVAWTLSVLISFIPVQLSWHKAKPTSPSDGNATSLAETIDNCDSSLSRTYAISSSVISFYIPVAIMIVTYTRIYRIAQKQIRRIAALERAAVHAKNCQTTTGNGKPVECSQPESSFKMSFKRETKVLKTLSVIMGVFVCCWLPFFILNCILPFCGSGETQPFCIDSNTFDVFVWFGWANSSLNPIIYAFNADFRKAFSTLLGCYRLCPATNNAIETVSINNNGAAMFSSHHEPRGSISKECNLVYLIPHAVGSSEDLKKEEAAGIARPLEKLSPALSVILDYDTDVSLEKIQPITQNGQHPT

Substance: SmBiT-miniGs (domain or fragment)
- DDR (luminescence with drug / without drug): 1.6
